± gives the standard error. For part of these data: Fewer inactive variants are shown than the library holds.
B1: glmS ribozyme (parent)
chain: AUAAAAGCGCCAGAACUACAGAAAUGUAGUUGACGAGGAGGAGGUUUAUCGAAUUUUCGGCGGAUGCCUCCAAA

Columns and labels:
Conditions in all cases: with glucosamine-6-phosphate
glucosamine-6-phosphate [1] = variants of: B1; test: kcat; higher = faster cleavage; RNA array
Outline: (§1)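 Sequenced MiSeq chips were the platform: E. coli RNA polymerase transcribed barcoded ribozyme variants on them in situ, and a hybridised Cy3 probe tracked these at 37 °C. After glucosamine-6-phosphate (40 μM to 10 mM) in HEPES/KCl/Mg(OAc)2 buffer was flowed in, tiles were imaged over ~14 h. Signals normalised to baseline and to non-cleaving reference variants were reduced to per-tile medians and fit to one- or two-exponential decays to obtain kobs. kcat and KM were derived through weighted Michaelis–Menten fits across concentrations.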

glucosamine-6-phosphate [2] = variants of: B1; test: KM; higher = weaker cofactor use; RNA array
Outline: as §1

glucosamine-6-phosphate [3] = variants of: B1; test: self-cleavage kobs at 40 uM GlcN6P; higher = faster cleavage; RNA array
Outline: as §1

glucosamine-6-phosphate [4] = variants of: B1; test: self-cleavage kobs at 160 uM GlcN6P; higher = faster cleavage; RNA array
Outline: as §1

glucosamine-6-phosphate [5] = variants of: B1; test: self-cleavage kobs at 640 uM GlcN6P; higher = faster cleavage; RNA array
Outline: as §1

glucosamine-6-phosphate [6] = variants of: B1; test: self-cleavage kobs at 10000 uM GlcN6P; higher = faster cleavage; RNA array
Outline: as §1

glucosamine-6-phosphate [7] = variants of: B1; test: self-cleavage kobs at 2500 uM GlcN6P; higher = faster cleavage; RNA array
Outline: as §1

Variant | kcat (glucosamine-6-phosphate [1]) [s⁻¹] | KM (glucosamine-6-phosphate [2]) [µM] | self-cleavage kobs at 40 uM GlcN6P (glucosamine-6-phosphate [3]) [s⁻¹] | self-cleavage kobs at 160 uM GlcN6P (glucosamine-6-phosphate [4]) [s⁻¹] | self-cleavage kobs at 640 uM GlcN6P (glucosamine-6-phosphate [5]) [s⁻¹] | self-cleavage kobs at 10000 uM GlcN6P (glucosamine-6-phosphate [6]) [s⁻¹] | self-cleavage kobs at 2500 uM GlcN6P (glucosamine-6-phosphate [7]) [s⁻¹]
C61U A64G | 2.3e-05 ± 9.4e-07 | 1200 ± 250 | < 1e-05 | < 1e-05 | – | – | –
U49G U54A | 0.00122 ± 0.00034 | 3170 ± 1400 | – | 9.47e-05 ± 2.3e-05 | 0.000176 ± 3.6e-05 | 0.000941 ± 0.00014 | –
A48G U54A | 0.000153 ± 2.2e-05 | 1650 ± 590 | – | – | 3.77e-05 ± 9.3e-06 | 0.000123 ± 1.8e-05 | 0.000115 ± 1.8e-05
U31G A52U | 8.72e-05 ± 5.4e-06 | 1520 ± 320 | < 1e-05 | – | – | 7.41e-05 ± 1.1e-05 | 5.7e-05 ± 9.5e-06
C16U C68A | 3.77e-05 ± 5.5e-06 | – | – | – | 4.99e-05 ± 1.5e-05 | 3.74e-05 ± 7.6e-06 | 2.73e-05 ± 1.3e-05
U65A U69A | 7.76e-05 ± 5.6e-06 | 134 ± 50 | – | 4.06e-05 ± 1.5e-05 | 6.97e-05 ± 1.3e-05 | – | 7.08e-05 ± 1.2e-05
U56G U69G C71U | 4.56e-05 ± 1.5e-05 | – | – | 8.5e-05 ± 2.7e-05 | 3.88e-05 ± 1.7e-05 | – | 5.83e-05 ± 2e-05
U46A C71G | 0.00042 ± 3.7e-05 | 2020 ± 370 | – | 4.33e-05 ± 1.2e-05 | 9.39e-05 ± 1.2e-05 | 0.000346 ± 3.2e-05 | 0.00025 ± 3.5e-05
U55A G66U | 0.00223 ± 0.00093 | – | 7.9e-05 ± 1.3e-05 | 0.000202 ± 5.4e-05 | 0.000355 ± 7.1e-05 | 0.00195 ± 0.00029 | 0.00136 ± 0.00021
A15U U54C | 0.00568 ± 0.0015 | 1560 ± 660 | 0.000186 ± 2.3e-05 | 0.000292 ± 0.0001 | 0.00189 ± 0.0003 | 0.00553 ± 0.00066 | 0.00297 ± 0.00042
G29A A64C | < 1e-05 | – | < 1e-05 | < 1e-05 | – | – | –
A33U C67G C68G | 9.15e-05 ± 1.3e-05 | – | 6.63e-05 ± 2e-05 | 4.67e-05 ± 1.9e-05 | 0.000106 ± 1.7e-05 | 7.94e-05 ± 2e-05 | 9.54e-05 ± 1.6e-05
A14C U69A | 0.000125 ± 1.5e-05 | 380 ± 170 | – | 2.61e-05 ± 1.2e-05 | 9.86e-05 ± 1.9e-05 | 0.00011 ± 1.8e-05 | 0.000115 ± 1.8e-05
C16A C58G | 3.2e-05 ± 7.1e-06 | – | – | – | – | 2.59e-05 ± 8.5e-06 | 4.47e-05 ± 1.2e-05

From the supplement of paper PMC7125110
